These results are taken from doi:10.1101/2024.12.03.626679 (2024).

One test deals with SMYD2-F184A (human, UniProt Q9NRG4 1-433, F184A). The experiment in a line: ITC; one-site model. On the technique in general: Isothermal titration calorimetry measures the heat released or taken up as one component is titrated into another.
The target in test [1] is T1, Full-length human SMYD2 (residues 1-433), wild type (human, UniProt Q9NRG4 1-433). The experiment in a line: ITC; one-site model (n = 2.01).
Test [2] addresses T1, Full-length human SMYD2 (residues …). The test can be described thus: ITC; two-site model, KD2 (second site).
For test [3] the target is unchanged. The test can be described thus: ITC; two-site model, KD1.

T1 sequence (Q9NRG4 whole entry, the tested form may be a part): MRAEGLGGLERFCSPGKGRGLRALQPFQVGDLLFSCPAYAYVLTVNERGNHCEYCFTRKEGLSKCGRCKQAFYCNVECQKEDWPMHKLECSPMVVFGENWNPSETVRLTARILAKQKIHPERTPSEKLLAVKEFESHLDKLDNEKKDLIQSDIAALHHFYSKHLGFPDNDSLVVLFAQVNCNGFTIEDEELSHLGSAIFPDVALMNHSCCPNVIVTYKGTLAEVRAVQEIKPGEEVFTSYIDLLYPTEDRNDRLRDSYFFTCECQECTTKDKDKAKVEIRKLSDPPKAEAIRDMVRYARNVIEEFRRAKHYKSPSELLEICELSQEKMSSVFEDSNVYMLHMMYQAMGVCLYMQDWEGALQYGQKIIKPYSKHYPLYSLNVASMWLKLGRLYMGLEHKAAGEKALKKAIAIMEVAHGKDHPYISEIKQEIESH
Sequence of SMYD2-F184A (Q9NRG4 whole entry F184A, the tested form may be a part): as the sequence (Q9NRG4 whole entry, the tested form may be a part) above, with F184A counted along it

As to RMKLTLKGGAAVD [PARP1 peptide (13-residue synthetic peptide, human PARP1 residues 522-534)], the dissociation constant Kd (in general, the free concentration of one partner at which half of the binding sites on the other are occupied at equilibrium, for simple one-to-one binding) with SMYD2-F184A was determined as 41.7 µM; in test [1], 17.7 µM; in test [2], 18.2 µM; in test [3] it was 17.8 µM.
